Data on four molecules can be found in patent US20060239990A1, “Protein Arginine N-Methyltransferase 2 (PRMT-2)” (priority 2003, published 2006).

The test system of one experiment is HIV-1 LTR. Nature of the experiment: HIV-1 reporter transcription, transient co-transfection. Format: cell-based, human. The following applies: 293T cells, co-transfection. The procedure: (§1) Cell culture, transfection, and reporter gene assays. The E1A-transformed, human kidney cell line, 293, and NIH-3T3 cells were maintained in Dulbecco's Modified Eagle Medium (DMEM) supplemented with 10% fetal calf serum and penicillin-streptomycin at 37° C. in 5% carbon dioxide in tissue culture grade Petri dishes. PRMT-2−/− mouse embryo fibroblasts (MEFs) and wild type MEFs were prepared from day 13.5 embryos and maintained in DMEM supplemented with 10% fetal calf serum. MEFs at passage 4 were used in this experiment. Lipofectamine Plus™ reagent (Boehringer Mannheim) was used to transfect both 293 and NIH-3T3 cells according to directions from the manufacturer. […] TNF-α stimulation of cells was done using recombinant TNF-α (200 U/ml) for 12 hours. Transfected cells were harvested at 36 hours, and CAT activity was assayed on 10 to 100 μg of protein from whole cell extracts. CAT assays were performed essentially as described in Leung, K. & Nabel, G. J. Nature 333, 776-778 (1988). To analyze the κB-reporter activity in MEFs, cells were transfected with the reporter (2×kB-Luc) and PRL-TK vector (Promega) using FuGENE6 transfection reagent (Roche). Luciferase activity was analyzed by Dual-Luciferase Reporter Assay System (Promega).
To determine whether PRMT-1, 2 or 3 could affect NF-κB function, their potential to regulate effects on transcription of the human immunodeficiency virus type 1 (HIV-1) was examined. Transient co-transfections were performed using PRMT1, PRMT2 and PRMT3 expression plasmids with an HIV-1 reporter plasmid in the human renal epithelial cell line, 293T.
To determine its dependence on NF-κB, human immunodeficiency virus type 1 (HIV-1) reporter plasmids with wild-type (WT) or mutant (ΔκB) sites were co-transfected transiently with control or PRMT2 expression plasmids in the different cell lines. […] The KB effect was dose-dependent and was also observed with other inducers of NF-κB, including phorbol […] (PMA) (FIG. 2B, right panel).

A further experiment addresses T1, RB (Homo sapiens, UniProt P06400).
T1 construct: coding region of RB cDNA was subcloned into pGEX-6P (Amersham/Pharmacia) for generation of GST-RB; made in house
T1 sequence (P06400 1-928): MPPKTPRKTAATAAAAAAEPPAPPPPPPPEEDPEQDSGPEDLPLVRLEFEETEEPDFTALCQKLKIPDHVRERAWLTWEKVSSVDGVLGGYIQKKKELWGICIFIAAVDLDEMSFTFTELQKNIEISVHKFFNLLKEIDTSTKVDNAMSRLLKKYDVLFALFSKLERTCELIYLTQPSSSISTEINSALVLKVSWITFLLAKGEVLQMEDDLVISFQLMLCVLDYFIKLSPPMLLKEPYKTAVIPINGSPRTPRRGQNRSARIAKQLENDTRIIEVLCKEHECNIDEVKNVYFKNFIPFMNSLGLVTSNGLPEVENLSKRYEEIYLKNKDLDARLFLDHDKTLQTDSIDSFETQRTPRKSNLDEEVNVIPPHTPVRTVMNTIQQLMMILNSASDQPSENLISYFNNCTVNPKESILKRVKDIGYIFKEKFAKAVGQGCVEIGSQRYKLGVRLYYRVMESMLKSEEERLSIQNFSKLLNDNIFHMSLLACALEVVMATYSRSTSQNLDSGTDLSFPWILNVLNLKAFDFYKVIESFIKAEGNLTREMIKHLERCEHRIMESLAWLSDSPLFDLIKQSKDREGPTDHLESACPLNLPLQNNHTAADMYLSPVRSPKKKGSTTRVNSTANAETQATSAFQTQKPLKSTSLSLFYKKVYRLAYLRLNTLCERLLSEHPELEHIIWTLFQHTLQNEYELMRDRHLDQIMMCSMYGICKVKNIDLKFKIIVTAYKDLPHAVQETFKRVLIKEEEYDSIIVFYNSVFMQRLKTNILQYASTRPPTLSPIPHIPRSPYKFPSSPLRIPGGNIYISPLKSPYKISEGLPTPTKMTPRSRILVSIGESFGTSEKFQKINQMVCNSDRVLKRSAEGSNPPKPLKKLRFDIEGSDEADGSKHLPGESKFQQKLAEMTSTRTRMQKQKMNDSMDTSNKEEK
Nature of the experiment: In vitro binding assay with GST-RB. The following applies: S35-labeled in vitro translated protein. Here is the method:
The crude cell lysate of the GST-fusion proteins was prepared and purified according to the manufacture's protocol (Amersham/Pharmacia). [^35S]-methionine-labeled protein was produced by in vitro transcription/translation using the TNT T7-coupled reticulocyte lysate system (Promega). [^35S]-methionine-labeled protein and GST-fusion protein bound to glutathione sepharose 4B beads were incubated in 500 μl of HNE buffer (50 mM Hepes, pH 7.8, 150 mM NaCl, 1 mM EDTA, 1 mM DTT, 1% NP40, and 1× protease inhibitor mix (Complete: Roche)) at 4° C. for 1 hour. Beads were washed four times with HNE buffer, and then analyzed on an SDS-PAGE gradient gel (4-15%). For the detection of endogenous PRMT-2 interaction with RB, MEFs were lysed with WCL buffer (50 mM Hepes, pH 7.8, 400 mM NaCl, 2 mM EDTA, 1 mM DTT, 0.2% NP40, 10% Glycerol, 20 mM α-glycerophosphate, 5 mM NaF, 0.1 mM NaVO4, and 1× protease inhibitor mix). Then, 1 mg of whole cell extracts were incubated with HNE buffer without DTT and 3 μg of antibodies as indicated. The immune complexes were isolated using protein G beads, and washed four times with HNE buffer. The precipitated protein was boiled with SDS-loading buffer and resolved on SDS-PAGE. For immunoprecipitation of HA-tagged protein, transfected cells were lysed with RIPA buffer (phosphate buffer saline containing 1% NP40, 0.5% sodium deoxycholate, 0.1% SDS, and 1× Complete), and 100 μg of whole cell lysates were immunoprecipitated with anti-HA antibodies and washed in RIPA buffer. Western blot analysis was performed as described in Tanner et al. (1998). Circ Res, 82, 396-403.
To test whether PRMT family members interact with RB, S^35-labeled in vitro translated PRMT1, PRMT2, PRMT3, and PRMT4 (CARM1) were incubated with GST-RB fusion proteins or control GST, and co-precipitated labeled proteins were resolved by SDS-PAGE. […] An equal amount of GST-RB and GST were loaded in each lane, verified by Coomassie staining (FIG. 8B).

Another experiment relates to NF-κB. Nature of the experiment: NF-κB luciferase reporter assay in 293T cells. Format: cell-based, human. The settings on record: 1 μg expression construct, 100 ng 5 κB luciferase reporter. The procedure:
as §1, with “Transfected cells were harvested at 36 hours, and CAT activity was assayed on 10 to 100 μg of protein from whole cell extracts.” left out
To map the domains responsible for inhibition of HIV transcription, truncation and point mutations were made in PRMT2 (FIG. 1D) and co-transfected with an NF-κB reporter in 293T cells. PRMT2-A represents an alternatively spliced form of PRMT2 found in the expressed sequence tag (EST) database. This isoform contains the first 218 amino acids of PRMT2 and differs from full length PRMT2 by the absence of the less conserved COOH-terminal domain. PRMT2-N was generated by introducing a stop codon after amino acid 95 before the putative Ado-Met domain of PRMT2. To analyze the role of the Ado-Met domain further, another mutant, PRMT2-4A, was prepared in which 141ILDV144 (SEQ ID NO:5) in this region were altered to four consecutive alanines to compare the effects of point mutations in this highly conserved region.
The mechanism and site of action of PRMT2 in the NF-κB signaling pathway was further defined by co-transfection of PRMT2 and its mutants with different regulators in this pathway with an NF-κB reporter in 293T cells (FIG. 2D).
In general terms: Reporter assays use an easily measured gene product as a stand-in for the process of interest.

B1: PRMT3: human protein arginine methyltransferase 3, expression construct (protein)
chain: CSLASGATGGRGAVENEEDLPELSDSGDEAAWEDEDDADLPHGKQQTPCLFCNRLFTSAEETFSHCKSEHQFNIDSMVHKHGLEFYGYIKLINFIRLKNPTVEYMNSIYNPVPWEKEEYLKPVLEDDLLLQFDVEDLYEPVSVPFSYPNGLSENTSVVEKLKHMEARALSAEAALARAREDLQKMKQFAQDFVMHTDVRTCSSSTSVIADLQEDEDGVYFSSYGHYGIHEEMLKDKIRTESYRDFIYQNPHIFKDKVVLDVGCGTGILSMFAAKAGAKKVLGVDQSEILYQAMDIIRLNKLEDTITLIKGKIEEVHLPVEKVDVIISEWMGYFLLFESMLDSVLYAKNKYLAKGGSVYPDICTISLVAVSDVNKHADRIAFWDDVYGFKMSCMKKAVIPEAVVEVLDPKTLISEPCGIKHIDCHTTSISDLEFSSDFTLKITRTSMCTAIAGYFDIYFEKNCHNRVVFSTGPQSTKTHWKQTVFLLEKPFSVKAGEALKGKVTVHKNKKDPRSLTVTLTLNNSTQTYGLQ
For B1, in the experiment with HIV-1 LTR, the “effect on transcription of the HIV-1 reporter plasmid” value is “did not affect transcription”. Also, the “binding to RB” value with RB was “do not bind RB”.

B2: PRMT2(1-218): deletion mutant lacking the C-terminal domain, retains SH3 domain and a large part of the AdoMet binding domain (protein)
chain: MATSGDCPRSESQGEEPAECSEAGLLQEGVQPEEFVAIADYAATDETQLSFLRGEKILILRQTTADWWWGERAGCCGYIPANHVGKHVDEYDPEDTWQDEEYFGSYGTLKLHLEMLADQPRTTKYHSVILQNKESLTDKVILDVGCGTGIISLFCAHYARPRAVYAVEASEMAQHTGQLVLQNGFADIITVYQQKVEDVVLPEKVDVLVSEWMGTCLL
For the molecule B2, the “binding to RB” value in the experiment with RB is “bound GST-RB at levels comparable to that of wild type PRMT2”.

B3: PRMT2-4A: amino acids 141-144 (ILDV) in the Ado-Met domain altered to four consecutive alanines, SEQ ID NO:6 (protein)
chain: MATSGDCPRSESQGEEPAECSEAGLLQEGVQPEEFVAIADYAATDETQLSFLRGEKILILRQTTADWWWGERAGCCGYIPANHVGKHVDEYDPEDTWQDEEYFGSYGTLKLHLEMLADQPRTTKYHSVILQNKESLTDKVAAAAGCGTGIISLFCAHYARPRAVYAVEASEMAQHTGQLVLQNGFADIITVYQQKVEDVVLPEKVDVLVSEWMGTCLLFEFMIESILYARDAWLKEDGVIWPTMAALHLVPCSADKDYRSKVLFWDNAYEFNLSALKSLAVKEFFSKPKYNHILKPEDCLSEPCTILQLDMRTVQISDLETLRGELRFDIRKAGTLHGFTAWFSVHFQSLQEGQPPQVLSTGPFHPTTHWKQTLFMMDDPVPVHTGDVVTGSVVLQRNPVWRRHMSVALSWAVTSRQDPTSQKVGEKVFPIWR
modifications: A synthetic PRMT-2-4A mutant polypeptide
Take B3: in the experiment on NF-κB, the NF-κB activity entry is on record as “inhibited NF-κB activity”.

B4: PRMT2(1-95): deletion mutant lacking the C-terminal and AdoMet binding domains, retains the SH3 domain (protein)
chain: MATSGDCPRSESQGEEPAECSEAGLLQEGVQPEEFVAIADYAATDETQLSFLRGEKILILRQTTADWWWGERAGCCGYIPANHVGKHVDEYDPED
B4: the “binding to RB” value in the experiment with RB was “did not bind GST-RB”.
